According to US20080044360A1 (COLLAGEN MEDICAL, published 2008):
Bridge positions count the residues as written; N and C are the ends. Square brackets hold non-standard residues; d marks the D form. Ends that are not written are not given here.

Experiments:
[1] = biological target: T1, rat collagen, acid soluble, type I, rat tail (Upstate 08-115) (rat, UniProt P02454 152-1207; P02466 86-1125); experiment: dried collagen assay
T1 construct: tissue extract, gelled and dried in wells; also called dried rat collagen
T1 sequence (P02454 152-1207, chain 1 of 2): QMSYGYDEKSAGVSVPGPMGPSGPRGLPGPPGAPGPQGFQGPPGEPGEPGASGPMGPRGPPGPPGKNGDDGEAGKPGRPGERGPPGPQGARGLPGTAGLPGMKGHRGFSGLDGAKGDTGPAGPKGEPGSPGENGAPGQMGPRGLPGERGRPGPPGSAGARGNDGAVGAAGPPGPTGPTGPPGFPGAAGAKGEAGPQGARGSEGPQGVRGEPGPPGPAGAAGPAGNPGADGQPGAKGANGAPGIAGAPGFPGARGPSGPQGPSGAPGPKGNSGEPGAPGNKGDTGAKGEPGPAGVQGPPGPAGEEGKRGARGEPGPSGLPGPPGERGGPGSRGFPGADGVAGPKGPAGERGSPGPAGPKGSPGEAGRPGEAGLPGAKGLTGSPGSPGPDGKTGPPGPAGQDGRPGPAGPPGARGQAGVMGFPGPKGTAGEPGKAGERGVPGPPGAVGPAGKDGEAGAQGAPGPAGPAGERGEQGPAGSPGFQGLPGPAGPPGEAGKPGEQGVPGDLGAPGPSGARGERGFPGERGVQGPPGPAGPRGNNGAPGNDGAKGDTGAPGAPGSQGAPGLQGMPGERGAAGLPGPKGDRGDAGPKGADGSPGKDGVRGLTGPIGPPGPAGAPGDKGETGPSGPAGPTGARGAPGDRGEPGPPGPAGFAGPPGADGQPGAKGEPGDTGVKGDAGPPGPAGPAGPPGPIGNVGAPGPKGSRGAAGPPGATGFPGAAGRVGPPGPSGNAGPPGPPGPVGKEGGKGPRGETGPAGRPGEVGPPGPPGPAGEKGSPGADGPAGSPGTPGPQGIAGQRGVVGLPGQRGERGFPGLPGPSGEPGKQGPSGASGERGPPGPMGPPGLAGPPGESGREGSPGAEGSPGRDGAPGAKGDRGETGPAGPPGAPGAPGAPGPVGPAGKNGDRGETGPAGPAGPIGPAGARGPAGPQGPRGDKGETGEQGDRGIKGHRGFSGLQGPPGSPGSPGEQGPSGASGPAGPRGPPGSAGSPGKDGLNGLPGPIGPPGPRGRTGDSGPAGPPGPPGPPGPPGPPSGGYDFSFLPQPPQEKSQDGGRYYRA
T1 sequence (P02466 86-1125, chain 2 of 2): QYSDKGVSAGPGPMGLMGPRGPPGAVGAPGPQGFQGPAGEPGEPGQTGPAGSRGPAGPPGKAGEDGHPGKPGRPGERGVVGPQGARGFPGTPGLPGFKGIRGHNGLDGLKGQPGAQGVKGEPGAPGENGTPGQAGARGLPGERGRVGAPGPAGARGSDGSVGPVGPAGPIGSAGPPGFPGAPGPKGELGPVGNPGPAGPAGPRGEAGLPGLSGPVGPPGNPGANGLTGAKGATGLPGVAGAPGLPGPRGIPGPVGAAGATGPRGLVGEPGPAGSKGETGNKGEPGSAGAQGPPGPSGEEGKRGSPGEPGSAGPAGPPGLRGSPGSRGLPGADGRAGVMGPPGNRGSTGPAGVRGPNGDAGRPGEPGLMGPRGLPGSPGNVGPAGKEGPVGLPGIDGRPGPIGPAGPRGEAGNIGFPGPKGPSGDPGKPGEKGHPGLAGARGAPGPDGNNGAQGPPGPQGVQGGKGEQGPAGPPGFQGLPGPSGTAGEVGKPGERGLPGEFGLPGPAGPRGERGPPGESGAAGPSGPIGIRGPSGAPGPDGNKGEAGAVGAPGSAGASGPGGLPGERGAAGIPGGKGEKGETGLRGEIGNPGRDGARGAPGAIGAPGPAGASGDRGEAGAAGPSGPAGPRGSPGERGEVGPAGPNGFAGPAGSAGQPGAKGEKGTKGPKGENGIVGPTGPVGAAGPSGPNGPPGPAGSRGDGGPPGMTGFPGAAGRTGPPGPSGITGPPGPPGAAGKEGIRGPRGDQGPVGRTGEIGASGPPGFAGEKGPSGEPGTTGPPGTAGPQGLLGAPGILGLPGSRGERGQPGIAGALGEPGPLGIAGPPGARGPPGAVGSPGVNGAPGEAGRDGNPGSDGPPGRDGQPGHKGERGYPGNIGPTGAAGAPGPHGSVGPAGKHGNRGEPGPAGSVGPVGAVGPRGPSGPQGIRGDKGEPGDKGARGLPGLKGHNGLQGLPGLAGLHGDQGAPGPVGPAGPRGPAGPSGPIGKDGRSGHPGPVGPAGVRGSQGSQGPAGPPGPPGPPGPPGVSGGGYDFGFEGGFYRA
Protocol: (§1) An additional 90 μL is reserved in a HPLC glass vial as a measure of the total concentration.

[2] = biological target: T2, human collagen type I, acid soluble, extracted from placenta (Sigma C7774) (human, UniProt P02452 162-1218; P08123 80-1119); experiment: dried collagen assay
T2 construct: tissue extract, gelled and dried in wells; also called dried human collagen; h-Collagen
T2 sequence (P02452 162-1218 limits assumed, chain 1 of 2): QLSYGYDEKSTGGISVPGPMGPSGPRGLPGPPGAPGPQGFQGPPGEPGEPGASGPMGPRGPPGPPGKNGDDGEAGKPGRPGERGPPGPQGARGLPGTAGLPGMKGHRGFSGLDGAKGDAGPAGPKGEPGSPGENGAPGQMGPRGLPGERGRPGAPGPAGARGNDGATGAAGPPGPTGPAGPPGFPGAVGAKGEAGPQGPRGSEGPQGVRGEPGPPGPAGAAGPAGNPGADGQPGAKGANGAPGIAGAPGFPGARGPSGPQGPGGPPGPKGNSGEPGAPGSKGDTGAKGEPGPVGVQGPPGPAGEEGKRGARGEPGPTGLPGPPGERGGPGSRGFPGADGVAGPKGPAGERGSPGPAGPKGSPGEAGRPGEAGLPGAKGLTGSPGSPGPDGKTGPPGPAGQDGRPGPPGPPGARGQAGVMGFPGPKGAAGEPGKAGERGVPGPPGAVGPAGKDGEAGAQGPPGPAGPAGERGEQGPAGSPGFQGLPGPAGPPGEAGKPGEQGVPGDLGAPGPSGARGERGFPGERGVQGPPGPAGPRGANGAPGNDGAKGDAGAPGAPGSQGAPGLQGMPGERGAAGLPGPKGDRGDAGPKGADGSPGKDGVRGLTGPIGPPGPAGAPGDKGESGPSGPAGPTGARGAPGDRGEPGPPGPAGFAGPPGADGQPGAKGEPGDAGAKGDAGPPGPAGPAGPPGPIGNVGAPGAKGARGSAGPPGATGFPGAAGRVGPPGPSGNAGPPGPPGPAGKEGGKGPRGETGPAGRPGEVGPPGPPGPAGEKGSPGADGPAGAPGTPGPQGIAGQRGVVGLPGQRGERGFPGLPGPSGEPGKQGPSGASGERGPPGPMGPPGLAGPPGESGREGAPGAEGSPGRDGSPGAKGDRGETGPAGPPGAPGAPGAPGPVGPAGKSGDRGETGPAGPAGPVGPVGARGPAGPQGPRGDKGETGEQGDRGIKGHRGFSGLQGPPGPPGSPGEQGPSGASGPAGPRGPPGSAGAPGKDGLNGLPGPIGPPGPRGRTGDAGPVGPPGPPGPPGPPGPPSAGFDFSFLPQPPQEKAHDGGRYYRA
T2 sequence (P08123 80-1119 limits assumed, chain 2 of 2): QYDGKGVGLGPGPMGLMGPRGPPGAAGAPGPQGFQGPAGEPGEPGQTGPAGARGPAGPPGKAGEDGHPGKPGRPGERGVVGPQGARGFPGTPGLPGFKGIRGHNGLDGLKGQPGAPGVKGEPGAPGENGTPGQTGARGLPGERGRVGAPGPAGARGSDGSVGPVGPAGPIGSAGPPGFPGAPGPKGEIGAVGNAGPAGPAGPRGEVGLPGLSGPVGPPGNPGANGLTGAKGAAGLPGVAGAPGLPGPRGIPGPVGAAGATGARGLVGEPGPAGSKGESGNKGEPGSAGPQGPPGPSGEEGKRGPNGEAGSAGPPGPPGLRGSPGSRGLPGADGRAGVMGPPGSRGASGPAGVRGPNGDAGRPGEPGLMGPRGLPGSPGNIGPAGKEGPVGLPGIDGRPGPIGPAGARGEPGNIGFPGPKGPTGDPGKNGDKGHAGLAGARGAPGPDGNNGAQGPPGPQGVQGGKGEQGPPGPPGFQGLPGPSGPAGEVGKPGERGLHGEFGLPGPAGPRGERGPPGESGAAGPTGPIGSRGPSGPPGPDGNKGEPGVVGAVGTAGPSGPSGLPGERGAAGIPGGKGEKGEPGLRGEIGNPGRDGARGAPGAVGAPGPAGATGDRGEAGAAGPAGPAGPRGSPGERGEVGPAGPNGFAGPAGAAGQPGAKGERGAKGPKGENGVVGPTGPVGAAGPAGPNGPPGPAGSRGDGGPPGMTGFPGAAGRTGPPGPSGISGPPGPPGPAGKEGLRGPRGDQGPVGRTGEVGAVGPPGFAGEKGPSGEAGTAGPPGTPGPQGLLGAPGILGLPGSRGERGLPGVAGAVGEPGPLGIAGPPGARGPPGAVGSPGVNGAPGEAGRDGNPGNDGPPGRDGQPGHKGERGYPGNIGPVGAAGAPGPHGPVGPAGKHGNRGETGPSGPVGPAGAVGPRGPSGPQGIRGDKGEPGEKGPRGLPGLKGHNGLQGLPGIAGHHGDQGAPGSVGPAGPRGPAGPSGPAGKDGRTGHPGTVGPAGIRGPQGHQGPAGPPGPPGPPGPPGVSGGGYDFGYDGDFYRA
Protocol: as §1

Binder	% bound [1]	% bound [2]
GQWTCSGDEYTWHCNY (disulfide 5-14 (inferred), cyclic, disulfide) [SEQ ID NO 123]	72%	59%
DWTCSGDHLTWHCNYG (disulfide 4-13 (inferred), cyclic, disulfide) [SEQ ID NO 116]	35%	58%
DWTCSGDHLTWKCNYG (disulfide 4-13 (inferred), cyclic, disulfide) [SEQ ID NO 117]	24%	38%
DWTCSGNHLTWYCNYG (disulfide 4-13 (inferred), cyclic, disulfide) [SEQ ID NO 118]	67%	68%
WTCSGDEYTWHCNYE (disulfide 3-12 (inferred), cyclic, disulfide) [SEQ ID NO 114]	14%	19%
GQWTCSGDEY[dA]WHCNA[dE] (disulfide 5-14 (inferred), cyclic, disulfide) [SEQ ID NO 124]	17%	24%
GQWACSGDEYTWHCNYE (disulfide 5-14 (inferred), cyclic, disulfide) [SEQ ID NO 140]	77%	84%
GQWTCSGDEYSWHCNY[dE] (disulfide 5-14 (inferred), cyclic, disulfide) [SEQ ID NO 125]	86%	85%
GQWTCSGDAYTWHCAYE (disulfide 5-14 (inferred), cyclic, disulfide) [SEQ ID NO 128]	72%	80%
GAWTCSGDEYTWHCNYE (disulfide 5-14 (inferred), cyclic, disulfide) [SEQ ID NO 129]	84%	87%
GQWTCSGDEYTWHCNYE (disulfide 5-14 (inferred), cyclic, disulfide) [SEQ ID NO 122]	71%	71%
GQWTCSGDEYTWSCNYE (disulfide 5-14 (inferred), cyclic, disulfide) [SEQ ID NO 127]	73%	80%
PWTCSGDEYAWHCNY[dE] (disulfide 4-13 (inferred), cyclic, disulfide) [SEQ ID NO 121]	72%	57%
GQATCSGDEYTWHCNYE (disulfide 5-14 (inferred), cyclic, disulfide) [SEQ ID NO 139]	0%	1%
DWTCSGDPYTWHCNYE (disulfide 4-13 (inferred), cyclic, disulfide) [SEQ ID NO 115]	23%	39%
DWTCSGDEFTWHCNYE (disulfide 4-13 (inferred), cyclic, disulfide) [SEQ ID NO 119]	55%	55%
GQWTCSGDEYAWHCNY[dE] (disulfide 5-14 (inferred), cyclic, disulfide) [SEQ ID NO 126]	73%	68%
DWTCSGDEYAWHCNY[dE] (disulfide 4-13 (inferred), cyclic, disulfide) [SEQ ID NO 120]	28%	38%

More lines, now with the values ahead:

% bound [1]	% bound [2]	Binder
48%	38%	YHAC[dY]QAGCWIW (disulfide 4-9 (inferred); not fully specified (C-terminus); printed as YHACyQAGCWIW, cyclic, disulfide; also called YHACyQAGCWIW) [SEQ ID NO 156]
11%	15%	YHA[dC]YQAGCWIW (disulfide 4-9 (inferred); not fully specified (C-terminus); printed as YHAcYQAGCWIW, cyclic, disulfide) [SEQ ID NO 155]
35%	37%	YHACY[dQ]AGCWIW (disulfide 4-9 (inferred); not fully specified (C-terminus); printed as YHACYqAGCWIW, cyclic, disulfide; also called YHACYqAGCWIW) [SEQ ID NO 157]
21%	24%	YH[dA]CYQAGCWIW (disulfide 4-9 (inferred); not fully specified (C-terminus); printed as YHaCYQAGCWIW, cyclic, disulfide) [SEQ ID NO 154]
27%	30%	QWTCSGDEYTWHCN[dY]E (disulfide 4-13 (inferred); not fully specified (N-terminus); printed as QWTCSGDEYTWHCNyE, cyclic, disulfide) [SEQ ID NO 177]
35%	49%	QWTCSGD[dE]YTWHCNYE (disulfide 4-13 (inferred); not fully specified (N-terminus); printed as QWTCSGDeYTWHCNYE, cyclic, disulfide) [SEQ ID NO 170]
86%	87%	DWTCS[dR]DEYTWHCNYE (disulfide 4-13 (inferred), cyclic, disulfide) [SEQ ID NO 181]
75%	81%	DWTCS[dA]DEYTWHCNYE (disulfide 4-13 (inferred), cyclic, disulfide) [SEQ ID NO 179]
72%	81%	DWTCS[dS]DEYTWHCNYE (disulfide 4-13 (inferred), cyclic, disulfide) [SEQ ID NO 180]
31%	46%	[dQ]WTCSGDEYTWHCNYE (disulfide 4-13 (inferred); not fully specified (N-terminus, C-terminus); printed as qWTCSGDEYTWHCNYE, cyclic, disulfide) [SEQ ID NO 164]
82%	82%	GQWTCSGDEYTWHCAYE (disulfide 5-14 (inferred); not fully specified (C-terminus), cyclic, disulfide) [SEQ ID NO 149]
87%	90%	QWTCSGDEYTWHCNY[dE] (disulfide 4-13 (inferred); not fully specified (N-terminus); printed as QWTCSGDEYTWHCNYe, cyclic, disulfide) [SEQ ID NO 178]
8%	9%	QWTCSGDEY[dT]WHCNYE (disulfide 4-13 (inferred); not fully specified (N-terminus); printed as QWTCSGDEYtWHCNYE, cyclic, disulfide) [SEQ ID NO 172]
63%	73%	DWTCS[dL]DEYTWHCNYE (disulfide 4-13 (inferred), cyclic, disulfide) [SEQ ID NO 183]
73%	66%	GQWTCSGDEYTWACNYE (disulfide 5-14 (inferred); not fully specified (C-terminus), cyclic, disulfide) [SEQ ID NO 148]
9%	16%	GQWTCSGDEYTWHCNAE (disulfide 5-14 (inferred); not fully specified (C-terminus), cyclic, disulfide) [SEQ ID NO 150]
83%	87%	GQWTCAGDEYTWHCNYE (disulfide 5-14 (inferred), cyclic, disulfide) [SEQ ID NO 141]
50%	68%	GQWTCSGDEATWHCNYE (disulfide 5-14 (inferred); not fully specified (C-terminus), cyclic, disulfide) [SEQ ID NO 145]
81%	87%	GQWTCSGDEYTWHCNYA (disulfide 5-14 (inferred); not fully specified (C-terminus), cyclic, disulfide) [SEQ ID NO 151]
77%	87%	GQWTCSGDAYTWHCNYE (disulfide 5-14 (inferred); not fully specified (C-terminus), cyclic, disulfide) [SEQ ID NO 144]
86%	89%	DWTCS[dY]DEYTWHCNYE (disulfide 4-13 (inferred), cyclic, disulfide) [SEQ ID NO 182]
51%	66%	GQWTCSGAEYTWHCNYE (disulfide 5-14 (inferred), cyclic, disulfide) [SEQ ID NO 143]
77%	82%	QWTCSGDEYAWHCNYE (disulfide 4-13 (inferred); not fully specified (N-terminus, C-terminus), cyclic, disulfide) [SEQ ID NO 146]
0%	0%	Y[dH]ACYQAGCWIW (disulfide 4-9 (inferred); not fully specified (C-terminus); printed as YhACYQAGCWIW, cyclic, disulfide) [SEQ ID NO 153]
